Source: patent publication US20120202233

Target: myc-CRAF (wild type)

B1: FLAG-KSR (wild-type KSR1) (protein)
chain: MDRAALRAAAMGEKKEGGGGGAAADGGAGAAVSRALQQCGQLQKLIDISIGSLRGLRTKCSVSNDLTQQEIRTLEAKLVKYICKQQQSKLSVTPSDRTAELNSYPRFSDWLYIFNVRPEVVQEIPQELTLDALLEMDEAKAKEMLRRWGASTEECSRLQQALTCLRKVTGLGGEHKMDSGWSSTDARDSSLGPPMDMLSSLGRAGASTQGPRSISVSALPASDSPVPGLSEGLSDSCIPLHTSGRLTPRALHSFITPPTTPQLRRHAKLKPPRTPPPPSRKVFQLLPSFPTLTRSKSHESQLGNRIDDVTPMKFELPHGSPQLVRRDIGLSVTHRFSTKSWLSQVCNVCQKSMIFGVKCKHCRLKCHNKCTKEAPACRITFLPLARLRRTESVPSDINNPVDRAAEPHFGTLPKALTKKEHPPAMNLDSSSNPSSTTSSTPSSPAPFLTSSNPSSATTPPNPSPGQRDSRFSFPDISACSQAAPLSSTADSTRLDDQPKTDVLGVHEAEAEEPEAGKSEAEDDEEDEVDDLPSSRRPWRGPISRKASQTSVYLQEWDIPFEQVELGEPIGQGRWGRVHRGRWHGEVAIRLLEMDGHNQDHLKLFKKEVMNYRQTRHENVVLFMGACMNPPHLAIITSFCKGRTLHSFVRDPKTSLDINKTRQIAQEIIKGMGYLHAKGIVHKDLKSKNVFYDNGKVVITDFGLFGISGVVREERRENQLKLSHDWLCYLAPEIVREMIPGRDEDQLPFSKAADVYAFGTVWYELQARDWPFKHQPAEALIWQIGSGEGVRRVLASVSLGKEVGEILSACWAFDLQERPSFSLLMDMLERLPKLNRRLSHPGHFWKSADINSSKVMPRFERFGLGTLESGNPKM
- in vitro kinase activity towards purified MEK in KSR immunoprecipitates, phospho-MEK antibody (FIG. 1G): Treatment of cells with PLX4720 induced kinase activity towards MEK in the KSR immunoprecipitates and only occurred when KSR and CRAF were co-expressed together
